{"source": "a protein production outcome set (Wang et al. 2014)", "test": "label from the status in PepcDB records"}
{"sequence": "MLSFIIKRILWAIPTLFGVSIIVFMMVHLVPGDPALVILGEKANQAAIDALREQFGLNKPLIEQYFFFINNVLHGNFGTSIMTGEPVMHEFWQRFPATVELALIALFMALVLGISVGVLAAIKRYSVFDYSSMTFALAGISMPVFWLGLMLIYIFSVQLGWLPVFGRLSDVYYLDGPTGLYLIDSLIARDYGAFMDTIKHLILPSIVLATVSTAVIARMTRASMAEVSKEDYVRTAKAKGCSSFRVIFVHTLRNALIPVTTIAGLMLAGLLGGSMITETVFSWPGIGKWIVNALNQRDFPIIQSMSLIIAMMYIGANLLVDILYAFIDPRIRLS", "values": [{"measurement": "protein production", "result": "failed"}]}
{"sequence": "MTSTPPTPGPKLLEERSLGGILIHFLAIPTGVVGAGLLYLLATDEFTKRNARNALDWHLTVLLITAVTFGSVFTYAELTGQGVTDVSIFPSSVSTVAGIVTSALLMLWFAVTAWTFAVGLIAMVKAIFGTAWRYPFSLALVERFGSHINLSDRWPLVILGYIVLSPLLIWAVFFVPANDAIVILSAFGLLGLILGLTPLTGIAMYRHGKEHWLQDADQQSHVFAHVGLPILVAAIGYVVSWSFTQSVSPQGDAMYVFLAAFWISSIVYLIRWWTTSSE", "values": [{"measurement": "protein production", "result": "failed"}]}
{"sequence": "MPQIQSSHSNHFDFTIDTADRTKLLMSYLVVPTTANFNNVMHGGELLNLLDKVAYVCSTRYCAKGTVTLSVDGVTFKYPIPVGNLLTFLASINYVGNTSCEVGIKVLSEDIKTREITHTNSCYFTMVAVENGKPTPMPKYEPKTEVEIRRYEGALKRKEMRTRGYLKSGKHEGV", "values": [{"measurement": "protein production", "result": "failed"}]}
{"sequence": "VRISRPDVLLNIHIAQTTCTLSLDSSGESLHRRGYRQEAVEAPLNEVLAAGMILMTGWKGECDLIDPMCGSGTIPIEAALIARNIAPGVFRKEFAFEKWGDFDQNLFDRIYNDDSQEREFTHKIYGYDNNPKANEIATHNVKAAGVSKDIILKLQPFQQFEQPAEKSIIITNPPYGERISTNDLLGLYNMIGERLKHAFVGNDAWILSYREECFDQIGLKPSVKTPLFNGPLECEFRKYQIFDGKY", "values": [{"measurement": "protein production", "result": "failed"}]}
{"sequence": "MVEIIPVSTTLELRAADESHVPALHQLVLKNKAWLQQSLDWPQYVTSQEETRKHVQGNILLHQRGYAKMYLIFCQNEMAGVLSFNAIEPINKAAYIGYWLDESFQGQGIMSQSLQALMTHYARRGDIRRFVIKCRVDNQASNAVARRNHFTLEGCMKQAEYLNGDYHDVNMYARIIDAD", "values": [{"measurement": "protein production", "result": "not failed"}]}
{"sequence": "MRADRSMLGPSLHRDQIMAMNRVQFQAGLSLPAFLKRYGNAQQCEQALEISRWPQGFVCPHCAATAHSRFQRHGTTYWQCTACYRQTSLRSGTVMDNSKLPLRTWLLGMYLLGQSKTNLSALELMRHLGVSYPTAWPMKHKLMQAMTQREANRKLGGIVQLDDAYLGGERNGGKAGRGSENKRLFVIAVETTEDGRPLRAVMDPVPGFTKAALSEWIGQRLHPGADVYSDGLGAFRALEAEHAHTVIEGSGRSRCEAENARWVNVVLSNLKRSLDGAYHAFKYAQRYLAETMWRFNRRFDLTRLVPSLLAAAAASKPWSERALRDVTMFTAESAC", "values": [{"measurement": "protein production", "result": "failed"}]}
{"sequence": "AQGVGVEAILLLRRECQASHEDALHLGLAEHAPVIELQTLRKLDGQAVSLIFHRYSAVYHELLADYQGGSVRQYLAECGLPLSRAQSLIGARLPSREEAGLLLMPRHMPALTVLTVSCDGAGQPVELSRSVSRSDRFQYQVATAIPTR", "values": [{"measurement": "protein production", "result": "not failed"}]}
{"sequence": "NNDDDGTNKAQEIAGKYEGYSIGNCAMFTDYVMGEKSVATIVPNEDGTINVTYDSGSGEFKLNNIKVTSKTFEGSGQVELSMNDKPAGAKDFTLTGSIDEQQKLTLKVNVPSVMGGLTIEFIQGTLPISYHVSGTYNKEANLSVSVGSTTYPDITDCKVSIKRSSDDTVELTLKGLSNLNSSQTGRAMNLGDFTVTDVKVTSTDNSIFKIEGSINTTDTNNTPITGTLSGTVSNSETNITFTFKPGAMPIDITAMFKGKK", "values": [{"measurement": "protein production", "result": "not failed"}]}
{"sequence": "MSDSTLTGNAPVRRNITRKNVIIGLLLLLFVLIALWCHGRPGSELGLLEFTPLVALAILSLIGVDIVLAVISSIIIAMIMTSTGLPEMGTMLAKSTGSFIATVGLIIMLGAGVGEVATRTGAAVELVKFVVHRIGLSSQTRVKFGIVASSILICGSLGTMAGGNAIIVAVIIPVAAAVRLTPPTVAALMMTAGSVGLFTGPFTPSTVTILSLGGLSYPDYLLYVGLPMSAVTLLAGWVMAGRIQKMTEGKLRYDVDLAEKPQEDLSAAQQRRRKLSALAFAATIIVMAIVGVVIKAGFSFAIIVMLLVALMTGLVGGLRPTQILQALYHGCGRLVWMFILYWLYNPILELMDGLHAYQGLLEYTQPLLEGISPAWLCFSIFAFNIIGHVPGAAVAQMTFTHKIFGPMLMAAGVPPQGTTAVLLASSQVDWFGPFPSSDMFGQMGLAQSTHLKYMLYNGWAIVVANIILFALLFQILV", "values": [{"measurement": "protein production", "result": "failed"}]}
{"sequence": "MIPPYREHPLREVLINELHARPSETIEAPVRLSHLAVLTGEITDPSLDHLGLLCARMGETVPAKGATRFNANLGGLGLQFERHTEFCTYTFQRRGRTGDLPFDQPALDMVPPDWLATLPGQVLSAVHLVVEPKDTPEYSIEELSIRHFAGNPVVGSAVGGGAAFAYSDLRLHDDRCLRMLIRDVDLNPRHAGRLVQRLLELNTYRALALLALPMARESSPGLRRIDMVLAHVAARMADPNGVDSDAELLSELSNLTAEVESLAAANSYRIAATRAYHALVQRRLEELREVRLDGVVTFGAFMDRRLTPAMATVDSVSERIESLSERGARVASLLRARVEVDLQAQNKRLLESMNRRARIQLRLQEAVEGLSVVAISYYLVGLVGYMAKGVSGAGVEVKESVVTAIAVPVIVASVWLVLRRAKRAMLNRAD", "values": [{"measurement": "protein production", "result": "failed"}]}
{"sequence": "MTNDFKKEKKEDYFVNLKAISTEVLQEKVQDNAWVIVDTRLNDAYNGWKLDGVKRGGHIKGAVDFSANWLSVYSDRKDEVLEQALKTKRIDLDKNIVLYDANGKDALVVADYLSKKGYKYLYKYDIKQWADDENLPMERYKNYQMIVPLEHHHHHH", "values": [{"measurement": "protein production", "result": "not failed"}]}
{"sequence": "MADSKEKLFSDFPAVSTEQWMEKITADLKGADFEKKLVWRTNEGFKVKPFYRQEDLEGLKTTEGLPGEFPYVRGTKKNDNTWFVRQEIKVECPKEANAKALDILNKGVDSLGFYVKKKDLSPEYIETLLNDICAECIELNFSTCQGHTVELAKLLVAYFQKKGYDLTKLQGSVNYDPMGKMMVKGKDLSNFITTAKELVEVLAPLPKFRCICVNAIELNNAGSYISQELGYALAWGNEYLSKLVEAGVPAALAAKKIKFNFGISSNYFLEIAKFRAARMLWADIVKEYHPQCNRQPECPNKAEDGTCLCACKMVAHAETSTFNLTLFDAHVNLLRTQTEAMSAALAGVNSITVTPFDKTYETPDDFSERIARNQQLLLKEECHFNKVVDPAAGSYFIENLTISIATQAWELFLKVEDEGGMLEAVKAGKVQEAINASNKARHDSVSKRKEILLGTNQYPNFNEKAGEKAPVEAKCCCGGNHDSCEKPFATLNFDRAASQFEALRLQTEKSGKRPKAFMLTIGNLAMRQARAQFSCNFLACAGYEVIDNLGFPTVEAGVEAAMKAGADIVVICSSDDEYAEYAIPAFKALDGRAIFIVAGAPACMEELKAAGIENFIHVRVNVLDTLKEYNAKLGIK", "values": [{"measurement": "protein production", "result": "failed"}]}
{"sequence": "MLTVGILGGGQLGWMTILEGRKLGFKFHVLEDKENAPACRVADRCFRTGQISEFVDSCDIITYEFEHIKDEVLEKCESKLIPNPQALYVKKSRIREKLFLKKHGFPVPEFLVIKRDEIIDALKSFKLPVVIKAEKLGYDGKGQYRIKKLEDANQVVKNHDKEESFIIEEFVKFEAEISCIGVRDREGKTYFYPQPFNKHEEGILIYNYVPYAKLKEAEEITKRLMELLDIVGVFTVEFFLLKDGRVLINEFAPRVHNTGHWTLDGAYTSQFENLLRAITEMPLGSTELKLPSGMVNILGKSYEEIPLKEILSVEGAKLYWYGKEKKPRRKVGHVNVVGRSKEEVVEKVERVFTLLKGSREKLPAP", "values": [{"measurement": "protein production", "result": "not failed"}]}
{"sequence": "MKRLSTLCLLAAGFFIPGQAHQARPTVLDSVYAPLKVATPPSDAYIGLSLLDNGEIRHYNYGEQAVAGTVYLSSTDHGLTWKRVNRPKEMPFADCQSPVSKEYIRLVDMGAMGVYCIRTSGGLTGGRTLTKVADRNSIMIKPPVFIRNGKRIVVAAHGGVTPKGCYTYFSDDDGLTWKCSNTVTSPDHQGGGFHKGIRWNHGAVEPTVVELKDGTLWMLMRTSQDFHYQAFSKDGGQTWGESEPSPFYGTITMPTLGRLADGRLLLFWCNTTPLPEKEGTDGVWDDVFTNRDVTHVAVSDDDGKTWKGFRELYMDPMRNDIDYAVHGGGIDRGVHQAQFVEVAPGKVLASIGQHPLHRAMMMFDVNWLYEKSRFNDFTDSLSQWSTFNYMNGIKGHCAYNRIQGCMLEPHPRKEGRQVLHLTYRPDASLVADTRGAVWNFPAMKKGTFTVSLRIPEGSHSVSLLLNDRWMNPSDTVARYQSMYELPLTRKQLGVKDDRWHEVSLEWDLLQKRPQARVWVDGRLRPLRLPLKNKSQNGISYVHFIAPPAEANPGVYLEWVRAEADGAI", "values": [{"measurement": "protein production", "result": "failed"}]}
